B1: anti-CD40 scFv 40-37 (in LACOSTIM 40-37.28) (scFv)
scFv: SYELTQPPSVSVSPGQTASITCSGDKLGNKYASWYQQKPGQSPVLVIFQDSRRPSGIPERFSGSNSGNTATLTISGTQAMDEADYYCQAWDSSTALFGGGTKLTVLGGGGSGGGGSGGGGSQVQLVQSGGGVVQPGRSLRLSCAASGFTFSSYAMHWVRQAPGKGLEWVAVISKDGSYENYVDSVKGRLAISRDNSKNTLFLQMDSLRPEDTALYFCARDYWYGMDVWGQGTTVTVSS
notes: Tested on T cells as part of the LACOSTIM 40-37.28 (scFv fused with CD28), co-electroporated with the anti-Her2 CAR 4D5.BBZ; also called 40-37 scFv
B2: anti-CD40 scFv 40-45 (in LACOSTIM 40-45.28) (scFv)
scFv: QSALTQPASVSGSPGQSITISCTGTSSDVGGYKYVSWYQQHPGKAPKLMIYDVSNRPSGVSNRFSGSKSGNTASLTISGLQAEDEADYYCSSYTSSSTPHVVFGGGTKVTVLGGGGSGGGGSGGGGSEVHLVESGGGVVQPGRSLRLSCAASGFPFSRYGMHWVRQAPGKGLEWVSYISSSGSTIYYADSVKGRFTISRDNSKNTVSLQMNSLRADDTAVYYCSRGTRPGITGRLGYWGQGTLVTVSS
notes: Tested on T cells as part of the LACOSTIM 40-45.28 (scFv fused with CD28), co-electroporated with the anti-Her2 CAR 4D5.BBZ; also called 40-45 scFv
B3: anti-CD40 scFv 40-47 (in LACOSTIM 40-47.28) (scFv)
scFv: QSALTQPASVSGSPGQSITISCTGTSSDVGAYNYVSWYQQLPGKTPKLMIYDVTNRPSGVSNRFSGSKSGNTASLTISGLQAEDEAYYYCGSYTTSSTLIFGGGTELTVLGGGGSGGGGSGGGGSEVHLVESGGGLVQPGGSLRLSCAASGFTFSSNWMSWVRQAPGKGLEWVANINQDGSEKYYVDSVKGRFTISRDNAKNSLYLQLNSLRAEDTAEYYCARGGYRYAYWGQGTLVTVSS
notes: Tested on T cells as part of the LACOSTIM 40-47.28 (scFv fused with CD28), co-electroporated with the anti-Her2 CAR 4D5.BBZ; also called 40-47 scFv
B4: anti-CD40 scFv 40-52 (in LACOSTIM 40-52.28) (scFv)
scFv: QSALTQPPSASGSPGQSVTISCTGTSSDVGAYNFVSWYQQHPGNAPKLIIYDVRKRPSGIPDRFSASKSGNTASLTVSGLQADDEADYYCSSYAGNNNLVFGGGTKLTVLGGGGSGGGGSGGGGSQVQLVQSGAEVKKPGSSVKVSCKASGGTFSSYAISWVRQAPGQGLEWMGMINPSGGTTSYAQKFQGRVTMTRDTSTSTVYMELSSLRPEDTAVYYCARGFRMDQWGQGTLVTVSS
notes: Tested on T cells as part of the LACOSTIM 40-52.28 (scFv fused with CD28), co-electroporated with the anti-Her2 CAR 4D5.BBZ; also called 40-52 scFv

Biological target: T1, CD40-Fc recombinant protein (human, UniProt P25942 21-193)
T1 construct: Soluble staining reagent; also called CD40-Fc protein; not shown: Fc part
Assay: FACS staining of T cells expressing the anti-CD40 scFv-CD28 fusion with CD40-Fc protein (FIG. 64)

T1 sequence (P25942 21-193 limits assumed): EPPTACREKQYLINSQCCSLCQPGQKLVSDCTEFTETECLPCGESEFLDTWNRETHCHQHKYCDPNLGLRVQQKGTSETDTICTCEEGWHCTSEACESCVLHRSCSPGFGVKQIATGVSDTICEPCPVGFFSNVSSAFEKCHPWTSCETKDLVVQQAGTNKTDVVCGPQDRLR

Binder	binding result
B1	binds
B2	binds
B3	binds
B4	binds

— patent publication US20250144213A1 (UTC THERAPEUTICS SHANGHAI, published 2025)
